In the DeepSol protein solubility set:

Assay: soluble on expression in E. coli; label from the status in PepcDB or PDB records

Sequence	soluble on expression in E. coli
MSLRKNESIRLIALGGVGEIGKNMYLAEVDEDLYVIDAGLMFPENEMLGIDIVIPDVSYLVQNKDRIRGIFLTHGHEDHIGALSYVLKKVSVPVYGTKLTLALAKAKMKEQDYRGKAELIEINSDSVLEFEHSSVSFFRTNHSIPDSVGICIHTSEGSIVYTGDFKFDQAAPELYKAEIGKMAGIGDNGVLCLLSDSTDAERPGYSTSEAVVQKAMAHAFYSAKGRVIAACFASDLIQIQHIFDAAEESGRKVAVAGKSIQKVYDLAVQLGYLAVKDDILIPLSELGSFRDHEVVILTAGSQGEPIEALQKMAKRTHRQVTIQEGDTVYLAAAPIRGGEVFIYKTMDMLYRAGATVITGKNSATASSHGSQEELKFMINLMKPKHFIPVHGEYKTLKSHGKLAAECGISQDSILIPEKGDVFEIKDGRIKQSGRVPAGNVLIDGIGVGDVGNIVLRDRRLLSQDGILIVVVTLNRHDKQIAAGPEIISRGFVYVRESEKLLVQAADMVKEIVHRGSQKESFDWAAVKQDMRDELNQFFYEKTKRRPMILPIIMEVKQEGHHHHHH	soluble
MSLRKVVILTLVTLFTCVEYSQAQTTEKEMTRQEKKAAQEALDKMLFQEAKEAIDNQTFVLEADRVYFKYGTSAFVSSNTNFVGLDGDKAVVQVAFNVPFSGPNGLGGITVDGNASNYKVKTDKKGNIHVSMNVMGIGISAQVNIDIPYGSNNATVDILPNFNSSHMTLSGQILPLKKANVFKGRSLEGHHHHHH	soluble
MSLRQVIPIPSPPAKYLLPEVTVLDYGKKCVVIDLDETLVHSSFKPISNADFIVPVEIDGTIHQVYVLKRPHVDEFLQRMGQLFECVLFTASLAKYADPVADLLDRWGVFRARLFRESCVFHRGNYVKDLSRLGRELSKVIIVDNSPASYIFHPENAVPVQSWFDDMTDTELLDLIPFFEGLSREDDEGHHHHHH	soluble
MSLRSELPEGFFGPREWARLNAVADIIPGFPHTDFDTANGAEALAEADILLAAWGTPSLTRERLSRAPRLKMLAYAASSVRMVAPAEFWETSDILVTTAASAMAVPVAEFTYAAIIMCGKDVFRLRDEHRTERGTGVFGSRRGRSLPYLGNHARKVGIVGASRIGRLVMEMLARGTFEIAVYDPFLSAEEAASLGAKKAELDELLAWSDVVSLHAPILPETHHMIGARELALMADHAIFINTARGWLVDHDALLTEAISGRLRILIDTPEPEPLPTDSPFYDLPNVVLTPHIAGALGNELRALSDLAITEIERFVAGLAPLHPVHKQDMERMAEGHHHHHH	soluble
MSLRSGVEMAQRFARYPGAVANAARLGAACAFDVRLIAPRLPDFPVPPGHTEMSYLRELAMRGAAEKYGPPHQRPDVYRQLDYELDVIEQLGFPGYFLVVWEIVEFCRSRGILCQGRGSAANSVVCYVLGITKADPIAFRLLFERFLSPERDGPPDIDVDIESGRREEVIQYVYSRYGRERAAQVATVITYRPRSAVRDMARALGYSPGQQDAWSKQLDRYGEIPRGSEADHDVPDDVVHLARQVLGFPRHLGIHSGGMVICDRPVAEVCPVEWARMPGRSVLQWDKDDCARIGVVKFDLLGLGMLSALRECFDLIETYHGVRLSLETIPPEDPAVYDMLCAADSVGVFQVESRAQMATLPRLQPRNFYDLVTEVAIIRPGPIQGGSVHPFIRRRRGREPVRYAHPLLRHSLERTYGVPLFQEQIMQMAIDVAGLTPAEADHLRQAMGAKREGHHHHHH	soluble
MSLRTEEEMFQLIMDVAKQEEHIRAVGMVGSRTNVKAPKDSFQDFDIVYIVEPCAEFFETATWIAKFGQPLIMQRPKEMTLFPTEPKTRETFLMLFEDGQRIDLTLCPLAEKDNWHEGDSLAIILLDKDENLPPLPVASDKNYTVTVPDQQQFNDCCNEFWWVSTYVVKGLCRNELFYAVTHLYEYCQQELLRLLSWQAAWQEPEPISVGKQFKYLKNYVTPDTMDQLASLLDFSSKEACWNSLIKTQAFFDVVAQDFAKMAQFTYHLQEAKKVTEYTNSLRLKDLQGKEGHHHHHH	soluble
MSLRTPYEEVRDFFHFVDNYVAEIDLLAEELAQELEIEGGETYGILAAHLRSLYGIHITRTEAAGGLIRHFDPAGKTLALSSYMAAPTRCFQLALQIAQLHAGATVDRVLAGAGFRNAEAAEICRIGLHNYFAAALILPYGQFHRAAQELRHDLELLAVRFGASLEQVAHRLSTLQRPGMKGVPIFFAKIDRAGNITKRHSATRLQFARFGAACPLWNIHQAFESSDRIVRQLAETPDGVRYLSIATQIEKAGAGFNTERPRYAIALGCEISHAQNFVYADTLDLGNAASFKPIGISCRVCERVDCVQRAVPPLKRKLHFDHLSRGALPYQIAEGHHHHHH	soluble
MSLRTSYKIYCTYKNIHAWYDAIKCGIDAAVKELAEKGVTVDYEWYGPAQPDAVDQVNSIETAIGQGWDLIAVDVNQPELTGEAINNAVAKGIPVAVFGTSDVPNCDRAFFVGNTDPYGDGCALAKAVCEKMGGKGQIAILAGTIGALAHEERLRGFKDTIAKYPDIEIVDEQRDNDEVEKAISITESWLQAYPNLGGILCNNMSNPVGACQAVADAGKSGKIVIGGMDHDLRALNALKDGTLYVAQVQNCYDMGYKLIYNAIKTIDGEKVEESTAVGSTSVYAQDADKFINMLYGEANEGHHHHHH	soluble
MSLRVIDSHTAGEPTRVVLDGGPDLGSGTLAERAARLEAEHLDFCASVMLEPRGHDAIIGALLVPPSDPACAAGVIYFNNLQNLGMCGHATIGLGVTLAHLGRIRPGRHRFETPVGVVEIDLIDANTVSVVNIESYRLAKDVTVEVEGVGPVTGDVAWGGNWFFMVKNSPIALTGANIRPLTDLTLKIRTALEKAGVTGKDGAWIDHIELFGPAEDPAAQSRNFVLCPGGAYDRSPCGTGCSAKMACLAADGALAPGQDYLQESVIGSTYKISYQPGPGGGVIPTITGQAFVTSDATLIFNPADPYRSGIRLEGHHHHHH	soluble
MSLSAGETDERLRIATTTSLYDTKLLDTLESRFEEKYGIEVDVISGGTGFALEQGRRGDVDLLLVHDKAREYEFIAEGYGTERRCFAYNYFYIVGPADDPAGIKGTNASEAFRMIADAGEKNSNVRFVSRGDNSGTHAREKLLWKSAGIEPSGSWYLESGQGMGATLIMVDEKRAYTLTDMSTYMAFAGNLSLVPLVTESEELLNVYAAIPVSASEHLDDAERFVEFLLSQEGQEIIAGYGKDIYGRALFYPAAGHCTEIGCNATECPGEMVSAFGEGHHHHHH	soluble
MSLSAHEIRELFLSFFEKKGHTRVKSAPLVPENDPTLLFVNAGMVPFKNVFLGLEKRPYKRATSCQKCLRVSGKHNDLEQVGYTSRHHTFFEMLGNFSFGDYFKKEAIEYAWEFVTEVLKLPKEKLYVSVYKDDEEAYRIWNEHIGIPSERIWRLGEEDNFWQMGDVGPCGPSSEIYVDRGEEYEGDERYLEIWNLVFMQYNRDENGVLTPLPHPNIDTGMGLERIASVLQGKNSNFEIDIIFPLIQFGEEVSGKKYGEKFETDVALRVIADHLRAITFAISDGVIPSNEGRGYVIRRILRRAMRFGYKLGIENPFLYKGVDLVVDIMKEPYPELELSREFVKGIVKGEEKRFIKTLKAGMEYIQEVIQKALEEGRKTLSGKEVFTAYDTYGFPVDLIDEIAREKGLGIDLEGFQCELEEQRERARKHFKVEAKKVKPVYSHLKELGKTSAFVGAAALEHHHHHH	soluble
MSLSAHPVPHAPAAPVCLAPRPAVPPTAVTVPPGAWDCHAHVLGPADLYPMQAERSYTPPDSSAAQYAALLDTLGLRRGVLVQPSVYGTDNRLLAQAVARPEWRGIAVLDPAADTRQVAALHAAGVRGFRLNLLFPGGPGLDALERSAALVAPFGWHAQLLVDVRILPGIEHRLARLPVPVVFDHLGHFPYELGTDWPGFHALLRRVAAGRTYVKLSGSYRLSARASHIADVAPIAQALVREAPQRLVWGSDWPHVGRFQDMPATHALLDALALWCPDPAARRAILVDTPTQLYSEGHHHHHH	not soluble
MSLSAMQWERLLDPTRLNDKHGGSREEIGRSPFHKDHDRIVFAGSFRRLGRKTQVHPLTDNDHIHTRLTHSLEVGCVGRSLGMIVGEQLRERLPAWITPADLGVIVQAACLGHDIGNPPFGHAGEYAIRDWFKRAEADGSGLLADLAPAEREDLLTYEGNAQGFRIVTQIEYNQFNGGMRLTAATLGTMLKYPWTVERASRAGKFGCYQSERELLGEVAERLGLLPRGETAWCRHPLAYLVEAADDICYALLDLEDGLEMGILRFDEVAEILIQIAGGAPEGYDGMRARGVSQRRRIATLRGAAMERAVNDVAAVFVAHESALLGGTLSEDLLELCHPDLGWGVGTAKRIARERIFQNERKAKLEIGAYTTLGILLEAFIGAAHELHYSGQSSFKHQRVLALIGENTPKSSWSLYASYRRMLDFIGGMTDHYAVDLAQEMGGRLEGHHHHHH	soluble
MSLSDDTIDRFFGYLNWLFNPFHGLKTTEVYDLIGTSSLTENALYLNLGYWRKADTIDEASEALALLVAKRGGMGPGDIVLDCGYGFGDQDILWARQLKPEKIIGLNITSSQVERARKRVADAGLEQSIDLREGSATAMPIENESIDLVVSVESAFHYRTREAFFREAFRVLRPGGRLVTADIVPTENSGNPFRRMEQWFSWNLVAGKFNIPQENYYLIPSYQNKLTKAGFVQIDIKSIRDDVYEPLHAYLAKNRTFFAKMHPLARIMAQLTLNRSAESVYAGLDYILSYAEKEGHHHHHH	soluble
MSLSDSNDDRPFRPFQSQYRWPGVDLLAYKEEGSAPFRSVTRQVLFSGNGLTGELRYFEVGPGGHSTLERHQHAHGVMILKGRGHAMVGRAVSAVAPYDLVTIPGWSWHQFRAPADEALGFLCMVNAERDKPQLPTEGHHHHHH	not soluble
MSLSDVSSNYWAAPFIQQLSQRGVIAGFPDGSFRPEEAVTRAQFAAMVNKAFQKSQQRSPINFADVPSNYWASSAIQQAYTIGFLSGYPGNRFEPNQAIPRQQVLVSLANGLEYSPIGNTESTLQYFNDASNIASYARSPMAAATEKQIVVNYPNVKFLNPTATATRAQVAAFIYQALVSSNQASAINSEGHHHHHH	soluble
MSLSDYKVGEELSDKEGVEYFKELSKRPVQEWPNKNLSINDVPKGKQGDLIRYGIELLSKTESTLGPYSKLKKTSNEVNCISCHMDNDGNGLPGTKKYVIPFLNILNNYPRLDIETMKIISVEDRIRGMGGTDSHRFPNDSKEMKAILAYFKWLKEAYGIKDGVKLEGDFFAKMNFPNRPADPVRGKKLFEENCVACHGERGLGVKNDNYEQGSGHLYPSLLIYPDGGHMAMIPFLARFLKSAMPFGASADNPILSDEDALDIAAYVNTGFVRMPITTTENRAGLDTAYSKSPSLKPEYFASPQQNLDPKEYIKVKYGPWKNPNHFPGEGHHHHHH	soluble
MSLSEDENALSIFETNCHSGSPKKQSSSAAIHKPYLHFTMSPYHQPTSYRPRLLLSGERGSGQTSHLAPALLHTLERFSVHRLDLPALYSVSAKTPEESCAQIFREARRTVPSIVYMPHIGDWWEAVSETVRATFLTLLQDIPSFSPIFLLSTSETMYSELPEEVKCIFRIQYEEVLYIQRPIEEDRRKFFQELILNQASMAPPRRKHAALCAMEVLPLALPSPPRQLSESEKSRMEDQEENTLRELRLFLRDVTKRLATDKRFNIFSKPVDIEEVSDYLEVIKEPMDLSTVITKIDKHNYLTAKDFLKDIDLICSNALEYNPDKDPGDKIIRHRACTLKDTAHAIIAAELDPEFNKLCEEIKEARIEGHHHHHH	not soluble
MSLSEEKWAIITGADGGMGTEITRAVAEAGYHIIMACYRPSKAEPIRQRLVNETGNANMEVMAVDLSSMASTASFADRIVERHLPVSLLMNNAGTMETGLHITDDGFERTVSVNYLGPYLLTRKLLPALTCGARIVNMVSCTYAIGHLDFPDFFRQGRKGSFWRIPVYSNTKLALMLFTIELSERLREKGITVNAADPGIVSTDIITMHQWFDPLTDIFFRPFIRTPKKGASTAVGLLLDEAVAGVSGQLYASSHRKQLSEKYLCHVQQKQLWQETEQALERWLKEGHHHHHH	soluble
